Assay results reported in PMC10953408.
pKd: −log10 of the molar value. One block for each substance: values may come before it.

Assays:
LgBit‐IL23R = LgBit‐IL23R (UniProt Q5VWK5); experiment: split reporter (BiFC, NanoBiT); complementary NanoBiT-tagged receptor constructs co-expressed in HEK293T cells; luminescence of living cells in HBSS with 1 mg/ml BSA after furimazine, plate reader; with or without 10 nM IL-23, with or without co-expressed untagged IL12Rβ1
LgBit‐IL12Rβ1 [1] = molecular target: LgBit‐IL12Rβ1 (UniProt P42701); experiment: as above
LgBit‐VEGFR‐2 = LgBit‐VEGFR‐2 (UniProt P35968); experiment: split reporter (BiFC, NanoBiT); HiBit-IL23R (80 ng per well) co-transfected with LgBit-IL12Rβ1 or LgBit-VEGFR-2 (20 ng per well) in HEK293T cells; luminescence given as percent of that of the LgBit receptor alone with 50 nM purified HiBit; HBSS/0.1% BSA, 37°C
LgBit‐IL12Rβ1 [2] = molecular target: LgBit‐IL12Rβ1 (UniProt P42701); experiment: as above
[3] = molecular target: NanoBiT complemented heteromer of HiBit‐IL23R and LgBit‐IL12Rβ1 (UniProt Q5VWK5)
[4] = molecular target: NanoBiT complemented heteromer of HiBit‐IL23R and LgBit‐IL12Rβ1 (UniProt Q5VWK5); experiment: FRET or BRET; NanoBiT BRET saturation: concentration titration of IL23-TMR for 1 h on living HEK293T cells expressing complemented NanoBiT receptors, with or without unlabelled IL-23; HBSS with 1 mg/ml BSA; one site total and nonspecific fit
[5] = molecular target: Trimeric or multimeric species of HiBit‐IL23R, LgBit‐IL23R and IL12Rβ1 (UniProt Q5VWK5); experiment: as above

fold lower luminescence than the equivalent heteromeric condition (LgBit‐IL23R): 2.12 fold
fold stronger luminescence than the SmBit homomer (LgBit‐IL23R): 6.36 fold
fold luminescence over the mean of the receptor constructs expressed in isolation (LgBit‐IL12Rβ1 [1]): 73.3 fold
luminescence as percent of that of LgBit-VEGFR-2 with 50 nM purified HiBit (LgBit‐VEGFR‐2): 11.6%
luminescence as percent of that of LgBit-IL12Rβ1 with 50 nM purified HiBit (LgBit‐IL12Rβ1 [2]): 73%
Substance: HiBit‐IL23R (from UniProt Q5VWK5 24-629) (receptor)

EC50 of STAT3 phosphorylation (phospho-STAT3 AlphaLISA), increasing concentrations of IL-23 on cells expressing HiBit-IL23R and LgBit-IL12Rβ1 [3]: 0.193 nM
Substance: Recombinant IL‐23 (from UniProt Q9NPF7 20-189; P29460 23-328) (ligand)

pKd [4]: 9.63
pKd [5]: 10.44
Substance: Tetramethylrhodamine (TMR) tagged IL‐23 (from UniProt Q9NPF7 20-189; P29460 23-328) (ligand)

fold lower luminescence than the equivalent heteromeric condition (LgBit‐IL23R): 2.18 fold
fold lower luminescence than HiBit-IL23R with LgBit-IL12Rβ1 (LgBit‐IL12Rβ1 [1]): 6.19 fold
fold luminescence over the mean of the receptor constructs expressed in isolation (LgBit‐IL12Rβ1 [1]): 10.3 fold
Substance: SmBit‐IL23R (from UniProt Q5VWK5 24-629) (receptor)
